Kd, koff and kon data for one substance are collected here from article PMC4014737.

pKd: −log10 of the molar value.

The assay concerns the target biotinylated yeast L3Δ21 peptide (S. cerevisiae) (UniProt P14126). The assay can be described thus: SPR; Biacore 3000; biotinylated L3Δ21 peptide on an SA sensor chip (Fc2), PAP as analyte at 103, 94, 75 and 45 pM; 25 °C; HBS-EP (0.1 M HEPES pH 7.4, 0.15 M NaCl, 3 mM EDTA, 0.005% polysorbate 20); 1:1 Langmuir fit.
Chain of UniProt P14126 (P14126 1-21, stated change not applied): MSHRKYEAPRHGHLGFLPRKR

For “His-tagged pokeweed antiviral protein (PAP), recombinant (enzyme)”, the negative logarithm of the Kd (pKd) was 7.61, the dissociation rate constant (koff) is 4.6e-05 s⁻¹ and the kon is 1860 M⁻¹ s⁻¹.
